Measured values from patent publication US20250326828A1 (STAIDSON BEIJING BIOPHARMACEUTICALS, published 2025).
Like-named read-outs stand apart in the source and are kept apart here.

T1: human GDF15-his (human)
T1 construct: Recombinant His-tagged fusion protein expressed in 293F cells
T1 chain: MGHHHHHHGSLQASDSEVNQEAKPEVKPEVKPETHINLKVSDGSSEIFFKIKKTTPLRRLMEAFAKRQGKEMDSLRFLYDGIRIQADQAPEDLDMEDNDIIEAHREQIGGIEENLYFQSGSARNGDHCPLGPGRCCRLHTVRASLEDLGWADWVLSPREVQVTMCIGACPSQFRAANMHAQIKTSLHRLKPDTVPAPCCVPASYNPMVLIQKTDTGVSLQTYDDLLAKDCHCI

T2: human GDF15-hFc (human)
T2 construct: Recombinant hFc-tagged fusion protein expressed in 293F cells
T2 chain: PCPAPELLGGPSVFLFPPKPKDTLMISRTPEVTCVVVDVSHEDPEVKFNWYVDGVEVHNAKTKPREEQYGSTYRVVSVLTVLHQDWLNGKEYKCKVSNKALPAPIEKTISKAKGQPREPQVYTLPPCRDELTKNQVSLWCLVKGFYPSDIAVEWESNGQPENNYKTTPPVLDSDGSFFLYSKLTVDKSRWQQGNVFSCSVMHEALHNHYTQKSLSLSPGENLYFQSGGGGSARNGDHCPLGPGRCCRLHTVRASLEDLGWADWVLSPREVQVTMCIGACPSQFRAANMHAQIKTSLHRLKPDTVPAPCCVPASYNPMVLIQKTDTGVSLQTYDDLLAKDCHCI

T3: rhesus monkey GDF15-hFc (rhesus monkey)
T3 chain: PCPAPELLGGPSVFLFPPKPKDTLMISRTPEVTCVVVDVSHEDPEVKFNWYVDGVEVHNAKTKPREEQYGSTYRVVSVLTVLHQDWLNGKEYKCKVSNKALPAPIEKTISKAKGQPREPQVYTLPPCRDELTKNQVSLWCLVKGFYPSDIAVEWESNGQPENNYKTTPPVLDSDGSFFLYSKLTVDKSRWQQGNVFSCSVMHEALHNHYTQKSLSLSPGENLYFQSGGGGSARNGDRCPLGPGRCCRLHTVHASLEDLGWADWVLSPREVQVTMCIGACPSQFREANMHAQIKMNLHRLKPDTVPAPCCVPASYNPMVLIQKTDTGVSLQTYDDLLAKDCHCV

T4: mouse GDF15-hFc (mouse)
T4 chain: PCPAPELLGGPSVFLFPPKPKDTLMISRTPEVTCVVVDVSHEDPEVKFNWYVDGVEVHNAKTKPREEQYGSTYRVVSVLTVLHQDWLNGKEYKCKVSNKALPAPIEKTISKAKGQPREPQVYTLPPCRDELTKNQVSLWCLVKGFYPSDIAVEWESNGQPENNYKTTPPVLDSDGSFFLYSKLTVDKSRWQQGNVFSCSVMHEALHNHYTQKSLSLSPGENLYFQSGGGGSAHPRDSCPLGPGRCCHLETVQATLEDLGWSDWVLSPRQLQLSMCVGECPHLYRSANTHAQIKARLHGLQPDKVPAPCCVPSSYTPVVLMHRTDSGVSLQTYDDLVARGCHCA


Key:
human GDF15-his [1] = target: T1, human GDF15-his; assay: ELISA as in Example 2: plate coated with the antibody, graded human GDF15-his, anti-his-HRP, OD450; the sheet's x axis reads 'Log GDF15 Antibody (nM)'
Description: (§1) ELISA binding assay: The purified monoclonal antibody was subjected to a binding assay with human GDF15-his protein. The binding assay was designed to characterize the binding activity of the anti-GDF15 antibody. Briefly, a 96-well plate was coated with anti-GDF15 antibody (200 ng/well) and incubated for 1 hour at 37° C. The plates were washed with PBST and then blocked for 1 hour at room temperature using 1% BSA. Then 100 µl/well of gradient-diluted human GDF15-his solution (dose range 0-50 μg/ml) was added into plates. After incubation, 100 μl of anti-his tag secondary antibody (anti-his-HRP (1:2000), Bersee, cat #BHR790) was added to each well. Finally, the TMB solution (100 μl/well) was added. 2M H₂SO₄ was used to stop the reaction. The OD450 was measured, and the binding curves were generated by PRISM software to analyze the affinity of candidate antibodies to human GDF15 antigen, and EC₅₀ value were calculated.

human GDF15-his [2] = target: T1, human GDF15-his; assay: cell-based or functional assay
human GDF15-hFc [3] = target: T2, human GDF15-hFc; assay: competition ELISA as in Example 2; GFRAL-his coated, antibody titrated against human GDF15-hFc
Description: The ELISA assay was performed to measure the inhibitory activity of anti-GDF15 antibodies in concentration gradients to block GDF15 binding to GFRAL receptor. IC₅₀ values were used as a measure for neutralizing activity of candidate molecules. Briefly, 96-well plates were coated with 100 ng/well of GFRAL-his protein (SEQ ID NO: 74), and incubated for 1 h at 37° C. The plates were washed with PBST and then blocked for 1 hour at 37° C. with 1% BSA. Gradient-diluted antibodies (dose range 0˜10 μg/ml) was added into each well, immediately followed by equal volume of human GDF15-hFc protein ([…]). After incubation and washing, 100 μl of anti-human IgG secondary antibody (goat anti-human IgG-HRP, Sigma, A8667) was added to each well. Finally, TMB solution (100 μl/well) was added. 2M H₂SO₄ was used to stop the reaction. The OD450 was measured and the binding curve was generated by PRISM to calculate the IC₅₀ value.

rhesus monkey GDF15-hFc = target: T3, rhesus monkey GDF15-hFc; assay: SPR, Biacore 8K; antibody on CM5 chip
Description: (§2) The binding affinity of anti-GDF15 antibodies for human GDF15, rhesus monkey GDF15, mouse GDF15 were characterized using Biacore 8K (GE). The anti-GDF15 antibodies were stabilized on sensor chip CM5. The binding affinity of antibody for GDF15 proteins from different species at various concentrations was measured. Using the SPR technology, the association and dissociation rates were measured, and binding affinity was determined.

human GDF15-hFc [4] = target: T2, human GDF15-hFc; assay: SPR, Biacore 8K; antibody on CM5 chip
Description: as §2

mouse GDF15-hFc = target: T4, mouse GDF15-hFc; assay: SPR, Biacore 8K; antibody on CM5 chip
Description: as §2

human GDF15-his [5] = target: T1, human GDF15-his; assay: ELISA as in Example 2: plate coated with the antibody, graded human GDF15-his, anti-his-HRP, OD450; the sheet's x axis reads 'Log GDF15 Antibody (nM)'
Description: as §1

human GDF15-his [6] = target: T1, human GDF15-his; assay: ELISA as in Example 2: plate coated with the antibody, graded human GDF15-his, anti-his-HRP, OD450; the sheet's x axis reads 'Log GDF15 antibody (nM)'
Description: as §1

human GDF15-his [7] = target: T1, human GDF15-his; assay: cell-based or functional assay

EC50 (read off the curve) (human GDF15-his [1]) [nM] | IC50 (read off the curve), SRE-luciferase signal in 293T-GFRAL/RET-Luc cells with human GDF15-his (human GDF15-his [2]) [nM] | IC50 (human GDF15-hFc [3]) [nM] | Kd (rhesus monkey GDF15-hFc) [nM] | koff (rhesus monkey GDF15-hFc) [s⁻¹] | kon (rhesus monkey GDF15-hFc) [M⁻¹ s⁻¹] | Kd (human GDF15-hFc [4]) [nM] | koff (human GDF15-hFc [4]) [s⁻¹] | kon (human GDF15-hFc [4]) [M⁻¹ s⁻¹] | Kd (mouse GDF15-hFc) [nM] | koff (mouse GDF15-hFc) [s⁻¹] | kon (mouse GDF15-hFc) [M⁻¹ s⁻¹] | EC50 (read off the curve) (human GDF15-his [5]) [nM] | EC50 (read off the curve) (human GDF15-his [6]) [nM] | IC50 (read off the curve), SRE-luciferase signal in 293T-GFRAL/RET-Luc cells with human GDF15-his (human GDF15-his [7]) [nM] | Binder
 |  | 0.88 |  |  |  |  |  |  |  |  |  |  | ~200 | ~0.2 | hum_R37-18 (antibody, V domains shown, Tested in human IgG1 format) VH: EVQLVESGGGLVKPGGSLRLSCAASGFSLSNYYMSWVRQAPGKGLEWVGMISFSGTTYATWAKGRFTISRDDSKNTLYLQMNSLKTEDTAVYFCARVVYAGWTYPLGIWGQGTLVTVSS VL: DIQMTQSPSSLSASVGDRVTITCQASQSISSVLSWYQQKPGKPPKLLIYEASILASGVPSRFSGSGSGTDFTLTISSLQPEDFATYYCQANYDVYNYGNPFGGGTKVEIK
 |  | 2.06 |  |  |  |  |  |  |  |  |  |  | ~200 | ~0.1 | hum_R37-13 (antibody, V domains shown, Tested in human IgG1 format) VH: EVQLVESGGGLVKPGGSLRLSCAASGFSLSNYYMSWVRQAPGKGLEWIGMISFSGTTYATWAKGRFTISKDSSKNTVYLQINSLKTEDTAVYFCARVVYAGWTYPLGIWGQGTLVTVSS VL: DIQMTQSPSSLSASVGDRVTITCQASQSISSVLSWYQQKPGKPPKLLIYEASILASGVPSRFSGSGSGTDFTLTISSLQPEDFATYYCQANYDVYNYGNPFGGGTKVEIK
 |  | 1.82 |  |  |  |  |  |  |  |  |  | ~80 |  | ~0.2 | hum_R37-9 (antibody, V domains shown, Tested in human IgG1 format) VH: EVQLVESGGGLVKPGGSLRLSCAASGFSLSNYYMSWVRQAPGKGLEWIGMISFSGTTYATWAKGRFTISKDDSKNTVYLQINSLKTEDTAVYFCARVVYAGWTYPLGIWGQGTLVTVSS VL: DIQMTQSPSSLSASVGDRVTITCQASQSISSVLSWYQQKPGKPPKALIYEASILASGVPSRFSGSGSGTDFTLTISSLQPEDFATYYCQANYDVYNYGNPFGGGTKVEIK
 |  | 1.9 |  |  |  |  |  |  |  |  |  | ~80 |  | ~0.1 | hum_R37-11 (antibody, V domains shown, Tested in human IgG1 format) VH: EVQLVESGGGLVKPGGSLRLSCAASGFSLSNYYMSWVRQAPGKGLEWVGMISFSGTTYATWAKGRFTISRDDSKNTVYLQINSLKTEDTAVYFCARVVYAGWTYPLGIWGQGTLVTVSS VL: DIQMTQSPSSLSASVGDRVTITCQASQSISSVLSWYQQKPGKPPKALIYEASILASGVPSRFSGSGSGTDFTLTISSLQPEDFATYYCQANYDVYNYGNPFGGGTKVEIK
 |  | 1.59 |  |  |  |  |  |  |  |  |  |  | ~200 | ~0.2 | hum_R37-15 (antibody, V domains shown, Tested in human IgG1 format) VH: EVQLVESGGGLVKPGGSLRLSCAASGFSLSNYYMSWVRQAPGKGLEWIGMISFSGTTYATWAKGRFTISKDDSKNTVYLQINSLKTEDTAVYFCARVVYAGWTYPLGIWGQGTLVTVSS VL: DIQMTQSPSSLSASVGDRVTITCQASQSISSVLSWYQQKPGKPPKLLIYEASILASGVPSRFSGSGSGTDFTLTISSLQPEDFATYYCQANYDVYNYGNPFGGGTKVEIK

Second part, the binder before the results:

Binder | EC50 (read off the curve) (human GDF15-his [1]) [nM] | IC50 (read off the curve), SRE-luciferase signal in 293T-GFRAL/RET-Luc cells with human GDF15-his (human GDF15-his [2]) [nM] | IC50 (human GDF15-hFc [3]) [nM] | Kd (rhesus monkey GDF15-hFc) [nM] | koff (rhesus monkey GDF15-hFc) [s⁻¹] | kon (rhesus monkey GDF15-hFc) [M⁻¹ s⁻¹] | Kd (human GDF15-hFc [4]) [nM] | koff (human GDF15-hFc [4]) [s⁻¹] | kon (human GDF15-hFc [4]) [M⁻¹ s⁻¹] | Kd (mouse GDF15-hFc) [nM] | koff (mouse GDF15-hFc) [s⁻¹] | kon (mouse GDF15-hFc) [M⁻¹ s⁻¹] | EC50 (read off the curve) (human GDF15-his [5]) [nM] | EC50 (read off the curve) (human GDF15-his [6]) [nM] | IC50 (read off the curve), SRE-luciferase signal in 293T-GFRAL/RET-Luc cells with human GDF15-his (human GDF15-his [7]) [nM]
hum_R37-5 (antibody, V domains shown, Tested in human IgG1 format) VH: EVQLVESGGGLVKPGGSLRLSCAASGFSLSNYYMSWVRQAPGKGLEWVGMISFSGTTYATWAKGRFTISRDDSKNTVYLQINSLKTEDTAVYFCARVVYAGWTYPLGIWGQGTLVTVSS VL: DIQLTQSPSSLSASVGDRVTITCQASQSISSVLSWYQQKPGKPPKALIYEASILASGVPSRFSGSGSGTDFTLTISSLQPEDFATYYCQANYDVYNYGNPFGGGTKVEIK | ~60 | ~0.1 | 1.9 | 1.23 | 0.00421 | 3.43e+06 | 0.584 | 6.95e-05 | 119000 | 106 | 0.000869 | 8210 |  |  | 
hum_R37-2 (antibody, V domains shown, Tested in human IgG1 format) VH: EVQLVESGGGLVKPGGSLRLSCAASGFSLSNYYMSWVRQAPGKGLEWIGMISFSGTTYATWAKGRFTISKDSSTVYLQINSLKTEDTAVYFCARVVYAGWTYPLGIWGQGTLVTVSS VL: DIQLTQSPSSLSASVGDRVTITCQASQSISSVLSWYQQKPGKPPKALIYEASILASGVPSRFSGSGSGTDFTLTISSLQPEDFATYYCQANYDVYNYGNPFGGGTKVEIK | ~60 | ~0.1 | 1.72 | 1.28 | 0.00263 | 2.06e+06 | 1.07 | 0.000137 | 129000 | 118 | 0.00175 | 14800 |  |  | 
hum_R37-8 (antibody, V domains shown, Tested in human IgG1 format) VH: EVQLVESGGGLVKPGGSLRLSCAASGFSLSNYYMSWVRQAPGKGLEWIGMISFSGTTYATWAKGRFTISKDSSTVYLQINSLKTEDTAVYFCARVVYAGWTYPLGIWGQGTLVTVSS VL: DIQMTQSPSSLSASVGDRVTITCQASQSISSVLSWYQQKPGKPPKALIYEASILASGVPSRFSGSGSGTDFTLTISSLQPEDFATYYCQANYDVYNYGNPFGGGTKVEIK |  | ~0.1 | 1.59 | 1.09 | 0.002 | 1.84e+06 | 0.607 | 8.46e-05 | 139000 | 101 | 0.0017 | 16800 | ~80 |  | 
hum_R37-7 (antibody, V domains shown, Tested in human IgG1 format) VH: EVQLVESGGGLVKPGGSLRLSCAASGFSLSNYYMSWVRQAPGKGLEWIGMISFSGTTYATWAKGRFTISKDSSKNTVYLQINSLKTEDTAVYFCARVVYAGWTYPLGIWGQGTLVTVSS VL: DIQMTQSPSSLSASVGDRVTITCQASQSISSVLSWYQQKPGKPPKALIYEASILASGVPSRFSGSGSGTDFTLTISSLQPEDFATYYCQANYDVYNYGNPFGGGTKVEIK |  | ~0.1 | 2.31 |  |  |  |  |  |  |  |  |  | ~80 |  | 
